{
  "source": "patent US20090181003",
  "key": {"[1]": {"test_system": "PI3-K (p85a/p110a complex)"}, "[2]": {"test_system": "recombinant S6K2 (highly purified)", "sequence (chain, as listed by the source)": "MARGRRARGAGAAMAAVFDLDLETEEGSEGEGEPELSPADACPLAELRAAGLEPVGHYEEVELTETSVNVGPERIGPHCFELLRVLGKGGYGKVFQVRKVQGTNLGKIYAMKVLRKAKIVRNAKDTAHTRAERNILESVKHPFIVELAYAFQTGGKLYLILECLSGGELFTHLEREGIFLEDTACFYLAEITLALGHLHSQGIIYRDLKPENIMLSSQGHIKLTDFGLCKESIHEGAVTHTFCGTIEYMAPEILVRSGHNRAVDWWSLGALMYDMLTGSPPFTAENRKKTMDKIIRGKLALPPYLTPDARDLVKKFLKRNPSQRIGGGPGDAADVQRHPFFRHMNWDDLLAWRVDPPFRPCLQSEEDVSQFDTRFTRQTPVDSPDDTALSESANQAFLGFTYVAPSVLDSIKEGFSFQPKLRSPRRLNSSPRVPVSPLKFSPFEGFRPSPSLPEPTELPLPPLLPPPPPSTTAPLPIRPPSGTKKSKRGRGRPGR"}, "[3]": {"test_system": "recombinant S6K1 (highly purified)"}, "PDK1 (recombinant)": {"test_system": "T1, PDK1 (recombinant)", "T1 sequence (O15530 1-556, species assumed, looked up)": "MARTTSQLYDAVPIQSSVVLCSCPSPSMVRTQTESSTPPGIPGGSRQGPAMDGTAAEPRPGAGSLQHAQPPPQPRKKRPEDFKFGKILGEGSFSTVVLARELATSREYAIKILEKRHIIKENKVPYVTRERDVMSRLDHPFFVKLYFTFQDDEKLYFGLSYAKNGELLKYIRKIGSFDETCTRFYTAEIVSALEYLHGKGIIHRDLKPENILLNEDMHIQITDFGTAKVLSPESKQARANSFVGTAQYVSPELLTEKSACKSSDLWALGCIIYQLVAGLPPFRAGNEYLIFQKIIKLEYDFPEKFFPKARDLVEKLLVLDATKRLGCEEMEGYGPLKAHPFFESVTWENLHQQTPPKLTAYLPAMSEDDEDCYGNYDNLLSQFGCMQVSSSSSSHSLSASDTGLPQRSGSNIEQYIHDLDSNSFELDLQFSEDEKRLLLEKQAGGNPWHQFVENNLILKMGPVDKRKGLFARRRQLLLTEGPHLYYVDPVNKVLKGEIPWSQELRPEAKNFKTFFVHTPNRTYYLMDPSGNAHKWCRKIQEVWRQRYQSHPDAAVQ"}},
  "data": [
    {"substance": "full-length p300", "values": [
      {"measurement": "in vitro acetylation by immunoprecipitated full-length p300", "setting": "[1]", "value": "no acetylation is observed for PKB/Akt, PDK1, PI3-K (p85a/p110a complex) under conditions used"},
      {"measurement": "in vitro acetylation by immunoprecipitated full-length p300", "setting": "PKCa (recombinant)", "value": "We detected weak, but reproducible acetylation of PKCa"},
      {"measurement": "in vitro acetylation by immunoprecipitated full-length p300", "setting": "PKB/Akt (recombinant)", "value": "no acetylation is observed for PKB/Akt, PDK1, PI3-K (p85a/p110a complex) under conditions used"},
      {"measurement": "in vitro acetylation by immunoprecipitated full-length p300", "setting": "[2]", "value": "S6K2 is acetylated in the presence of p300 and AcCoA"},
      {"measurement": "site of in vitro acetylation (MALDI mass spectrometry of Arg-C peptide 297 to 310)", "setting": "[2]", "value": "contains a lysine at position 2 (residue 298 in S6K2). This peptide was sequenced and the acetylated lysine was confirmed (data not shown)"},
      {"measurement": "site of in vitro acetylation (MALDI tandem mass spectrometry of tryptic peptide 509Q-R522)", "setting": "[3]", "value": "this peptide was acetylated on the Lysine 516"},
      {"measurement": "in vitro acetylation by immunoprecipitated full-length p300", "setting": "PDK1 (recombinant)", "value": "no acetylation is observed for PKB/Akt, PDK1, PI3-K (p85a/p110a complex) under conditions used"}
    ]}
  ]
}
